These results are taken from publication PMC4826903 (Science (New York, N.Y.), 2015).

This data set concerns the molecule itself.

B1: Nsp1•Nup49•Nup57 channel nup hetero-trimer (CNT) (complex, Chaetomium thermophilum)
chain 1: MDEIITRWATDLAKYQKEFKEQAAKVMEWDRLLVENGEKIQKLYTSTYEAERASNEIERQLSNVESQQEELTAWLDRYERELDELYAKQMGSAAGEQAAGPDQERERTYKLAEKLTDQLDEMGKDLAKMIKEINDMSNTLSKGSKPDDPLTQIVRVLNGHLAQLQWIDTNAAALQAKVAAAQKAAGSMGANVPGTETDAAESFYRSYR
chain 2: EALQQEIAKIDEEIQKCIRDKEAVDAFLPAHGEQLAAIPTDVNFVTRKSEGAHNALSSDILAIDQLRELVKQDADNARLSFKAIDNLKLPMQYHQAGLWSKQMGGAGTAGASGASADADGQSNADLISYFSKTADEMEEMMKKFEKTITEIEAHLTGVEAHAMAMQNVAAQSRNAAQGGVDERVYELAAVLREFEESILKVAGVVGGVKEGVTELQLRDFMGHGS
chain 3: YQKPIPEQIKLIVDKWNPNHPNCAFKTYLYNKVDEHTVPLYGPGPNEDPKEWEEALQRKPAPNFIPVLCSGFPSIVARLMLQRRVITEFNNKLHQINASLDAILSRHDLDHTVRAFNARRRHAELSRRCLHLAARVQVLRNRGYALSGDEDELKQKLQQIDKTLNDPAQGSRLEELWSRLIVLRGYAEDLKDQINQAGITESDGLGEEIEAKAKKILEDYDKQLQHLKKQVEEAKKDFEEWEKQHN
For B1, the “stoichiometry N” value worked out at 2.

As a reminder, the stoichiometry N is a count of units in the complex or per binding partner.
